This is an account of results in CN109776677A (SHANGHAI PHARMEXPLORER COMPANY LTD, dated 2019).

Assay [1] concerns the target 免疫原A (his标签重组人IL-13蛋白) (human) (UniProt P35225). The assay is described as follows: SPR (Biacore), steps as Example 9. For orientation: SPR reads the build-up and loss of mass on a sensor chip optically.
Assay [2] shares this target. The assay is described as follows: SPR (Biacore), sentence on the group of 表27.
Assay [3] shares this target. The assay can be described thus: SPR (Biacore), antibody captured on anti-human Fc CM5 chip, immunogen A as analyte, 1:1 global fit.
The next assay deals with T1, 鼠IL-13 (小鼠 (mouse), UniProt P20109 19-131, limits assumed).
T1 construct: Bought protein; also called 小鼠IL-13; 鼠IL-13变体
T1 sequence (looked up): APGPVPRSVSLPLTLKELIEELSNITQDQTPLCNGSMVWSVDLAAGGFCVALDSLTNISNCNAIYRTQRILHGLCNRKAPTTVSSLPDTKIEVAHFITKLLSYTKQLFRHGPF
The assay can be described thus: ELISA, IL-13 at 0.5 μg/mL on streptavidin plate, serially diluted antibody, HRP second antibody.

A value given as a limit tells only on which side of the number the result lay.

B1: 35E2C3 (antibody, V domains shown)
VH: EVQLQESGPGLAKPSQTLSLTCSVTGYSITSDYWNWIRKFPGNKLEYMGYISYNGNTYYNPSLKSQISITRDTSKNQLYLQLKSATTEDTATYYCARLAKWTWYFDIWGTGTTVTVSS
VL: DIQMNQSPSSLSASLGDTITITCHASQNINVWLSWYQQKPGSLPKLLIYKASDLHTGVPSRFSGSGSGTGFTLTISSLQPEDIATYYCQQGQSYPYTFGGGTKLEIK
notes: also called 先导抗体; IL-13先导抗体
As for B1, in assay [1], the Kd (usually the free concentration of one partner at which half of the binding sites on the other are occupied at equilibrium, for simple one-to-one binding) was found to be 0.86 nM; the koff (commonly the first-order rate constant of dissociation) came to 0.000248 s⁻¹; the kon (in general, a measure of how fast the partners come together) was determined as 289000 M⁻¹ s⁻¹. Besides, the equilibrium dissociation constant (Kd) in assay [2] was < 90 nM. In assay [3], this molecule showed a Kd of 0.863 nM, an off-rate (koff) of 0.00026 s⁻¹ and a kon of 300000 M⁻¹ s⁻¹. The binding result with 鼠IL-13 is “no binding”.

B2: c29D9H8 (antibody, V domains shown)
VH: QVQLQQSGAELVRPGASVTLSCKASGYTFTDYEMHWVKQTPVHGLEWIGGIDPETGGTASNQKFKGKAILTADKSSSTAYMELRSLTSEDSAVYYCTSGDYFGGGPFAYWGQGTLVTVSA
VL: DIKMTQSPSSMYASLGERVTITCKASQDINSYLSWFQQKPGKSPKTLIYRANRLVDGVPSRFSGSGSGQDYSLTISSLDYEDMGIYYCLQYDEFPYTFGGGTKLEIK
With B2, in assay [1], the Kd was 0.0247 nM, the koff was found to be 0.000962 s⁻¹ and the kon was 3.9e+07 M⁻¹ s⁻¹. Moreover, the Kd in assay [2] was < 90 nM. In assay [3], this molecule had a Kd of 0.0324 nM, a koff of 0.000813 s⁻¹ and a kon of 2.51e+07 M⁻¹ s⁻¹.
